Blank lines part the entries; values can stand above or below the molecule they belong to.
How the values were obtained:
Experiment in all cases: SEC; gel permeation chromatography of ArcticExpress bacterial lysates on Superdex 20/300 GL in rupturing buffer (20 mM Tricine pH 7.5, 7.5 mM MgCl2, 1 mM DTT), 0.25 ml/min; fractions immunoblotted with anti-S-tag; wild type also pretreated with CKII + 1 mM ATP or with CIP
[1] = molecular target: recombinant S-tagged Arabidopsis SS2 N-terminal region polypeptide (NT) (Arabidopsis thaliana) (UniProt Q9MAC8)
[2] = molecular target: recombinant S-tagged Arabidopsis SS2 N-terminal truncation TRU1 (Arabidopsis thaliana) (UniProt Q9MAC8)
[3] = molecular target: the molecule itself

stoichiometry N [1]: > 6
Molecule: recombinant S-tagged Arabidopsis SS2 N-terminal region polypeptide (NT) (from UniProt Q9MAC8 56-240) (domain or fragment)

stoichiometry N [2]: 2
Molecule: recombinant S-tagged Arabidopsis SS2 N-terminal truncation TRU1 (from UniProt Q9MAC8 57-792) (domain or fragment)

B1: recombinant S-tagged mature Arabidopsis thaliana starch synthase 2 (wild type) (enzyme, UniProt Q9MAC8 55-792, looked up)
chain: KCVSRVEASGSDDDEPEDALQATIDKSKKVLAMQRNLLHQIAERRKLVSSIKESTPDLDDAKASSKQESASSVNANTDATKKEIMDGDANGSVSPSTYGKSSLSKEPEAKTFSPSTESLKNRKQSSASVISSSPVTSPQKPSDVATNGKPWSSVVASSVDPPYKPSSVMTSPEKTSDPVTSPGKPSKSRAGAFWSDPLPSYLTKAPQTSTMKTEKYVEKTPDVASSETNEPGKDEEKPPPLAGANVMNVILVAAECAPFSKTGGLGDVAGALPKSLARRGHRVMVVVPRYAEYAEAKDLGVRKRYKVAGQDMEVMYFHAFIDGVDFVFIDSPEFRHLSNNIYGGNRLDILKRMVLFCKAAVEVPWYVPCGGVCYGDGNLAFIANDWHTALLPVYLKAYYRDHGIMKYTRSVLVIHNIAHQGRGPVDDFSYVDLPSHYLDSFKLYDPVGGEHFNIFAAGLKAADRVLTVSHGYSWEVKTLEGGWGLHNIINENDWKFRGIVNGIDTQEWNPEFDTYLHSDDYTNYSLENLHIGKPQCKAALQKELGLPVRPDVPLIGFIGRLDHQKGVDLIAEAVPWMMSQDVQLVMLGTGRPDLEEVLRQMEHQYRDKARGWVGFSVKTAHRITAGADILLMPSRFEPCGLNQLYAMNYGTIPVVHAVGGLRDTVQQFDPYSETGLGWTFDSAEAGKLIHALGNCLLTYREYKESWEGLQRRGMTQDLSWDNAAEKYEEVLVAAKYHW
notes: Cloned into pET29a; Predicted 85 kDa; also called SS2; AtSS2; source: E. coli ArcticExpress; in bacterial lysate (GPC); not shown: S-tag, N-terminal, kept
stoichiometry N [3]: 2

Reference: article PMC6156364, “Bioinformatic and in vitro Analyses of Arabidopsis Starch Synthase 2 Reveal Post-translational Regulatory Mechanisms” (Frontiers in Plant Science, 2018)
